{"source": "the nanobody polyreactivity screen of Harvey et al. (2022)", "data": [{"assay": "yeast display, Sf9 membrane polyspecificity reagent, FACS + sequencing; frameworks hold sequencing errors", "method_in_brief": "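In a synthetic yeast display library (Saccharomyces cerevisiae BJ5465), nanobody expression was induced with galactose for 36–48 hours. FACS gates were set low and high (top ~1%) using anti-HA fluorescence for expression and streptavidin fluorescence for binding of the Sf9 membrane reagent. Each polyreactivity label is drawn from the gate of origin.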", "values": [{"sequence": "QVQLVESGGGLVQAGGSLRLSCAASGRTFYFYAMGWYRHAPGKERELVAAITSGGGRTNYADSVKGRFTISRDNAKNTVYLQMNSLKPEDTSVYYCAAVLYGQYTGKYYFWGQGTQVTVSS", "polyreactivity (PSR sort gate)": "high polyreactivity"}, {"sequence": "QVQLVESGGGLVQAGGSLRLSCAASGRTFYFYAMGWYRQAPGKERELVAAITFSGGSTYYADSVKGRFTISRDNAKNTVYLQMNSLKPEDTAVYYCIAVSTYKREYWGQGTQVTVSS", "polyreactivity (PSR sort gate)": "low polyreactivity"}, {"sequence": "QVQLVESGGGLVQAGGSLRLSCAASGRTFYFYAMGWYRQAPGKERELVAAITWSDGTTYYADSVKGRFTISRDNAKNTVYLHMNSLKPEDTAVYYCAARVRIYGRRYNYWGQGTQVTVSS", "polyreactivity (PSR sort gate)": "high polyreactivity"}, {"sequence": "QVQLVESGGGLVQAGGSLRLSCAASGRTFYFYAMGWYRQAPGKERELVASITSSGGNTYYADSVKGRVTISRDNAKNTVYLQMNSLKPEDTAVYYCAARWFPWLQWKRYDYWGQGTQVTVSS", "polyreactivity (PSR sort gate)": "low polyreactivity"}, {"sequence": "QVQLVESGGGLVQAGGSLRLSCAASGRTFYFYAMGWYRQAPGKEWELVAAISWSGGRTYYADSVKGRFTISRDNAKNTVYLQMNSLNPEDTAVYYCAAEYRWSVGYWRYGLDDYWGQGTQVTVSS", "polyreactivity (PSR sort gate)": "high polyreactivity"}, {"sequence": "QVQLVESGGGLVQAGGSLRLSCAASGRTFYFYTKGWYRQAPGKERELVATAITSGGSTNYADSVKGRFTISRDNAKNTVYLQMNSLKPEDTAVYYCNARYTYLWSSLYYWGQGTQVTVSS", "polyreactivity (PSR sort gate)": "low polyreactivity"}, {"sequence": "QVQLVESGGGLVQAGGSLRLSCAASGRTFYFYTLGWYRQAPGKERELVAAISWSGGSTYSADSVKGRFTISRDNAKNTVYLQLNSLKPEDTAVYYCAASSPWEQSNDQFYYWGQGTQVTVSS", "polyreactivity (PSR sort gate)": "low polyreactivity"}, {"sequence": "QVQLVESGGGLVQAGGSLRLSCAASGRTFYGNAMGWYRQAPGTEREFVAAITRSGGTTYYADSVKGRFTISRDNAKNTVYLQMNSLKPEDTAVYYCARSYGWYRWAGYDYWGQGTQVTVSS", "polyreactivity (PSR sort gate)": "high polyreactivity"}, {"sequence": "QVQLVESGGGLVQAGGSLRLSCAASGRTFYGNVMGWYRQAPGKEREWVAVISWSSGSTSYADSVKGRFTISRDNAKNTVYLQMNSLKPEDTAVYYCAGTTRPPRYRQYDSDYYYWGQGTQVTVSS", "polyreactivity (PSR sort gate)": "low polyreactivity"}, {"sequence": "QVQLVESGGGLVQAGGSLRLSCAASGRTFYGYAMGWSRQAPGKERELVAAISVSGGGTYYADSVKGRFTISRDNAKYTVYLQMNSLKPEDTAVYYCAAAVYERPRDYYYWGQGTQVTVSS", "polyreactivity (PSR sort gate)": "low polyreactivity"}, {"sequence": "QVQLVESGGGLVQAGGSLRLSCAASGRTFYGYAMGWYRQAPGKERELVAAISRRGGSTNYADSVKGRFTLSRDNAKNTVYLQMNSLKPEDTAVYYCNVAFRIPYRMDYWGQGTQVTVSS", "polyreactivity (PSR sort gate)": "high polyreactivity"}, {"sequence": "QVQLVESGGGLVQAGGSLRLSCAASGRTFYGYAMGWYRQAPGKERELVAAISWTGGRTYYADSVKGRFTISRDNAKNTVYLQMNSLKPEDTAVYYCNARRRGDSGDGYIYGYWGQGTQVTVSS", "polyreactivity (PSR sort gate)": "high polyreactivity"}, {"sequence": "QVQLVESGGGLVQAGGSLRLSCAASGRTFYGYAMGWYRQAPGKERELVASIDGGGRTYYADSVKGRFTISRDNAKNTVYLQMNSLKPEYNGVYYCAKRSYQYGYPDGYGYWGQGTQVTVSS", "polyreactivity (PSR sort gate)": "low polyreactivity"}, {"sequence": "QVQLVESGGGLVQAGGSLRLSCAASGRTFYGYAMGWYRQAPGKERELVATISWSGGRTNYADSVKGRFTISRDNAKNTVYLQMNSLKPEDTAVYYCAAPYRLSKYDYWGQGTEVTVSS", "polyreactivity (PSR sort gate)": "high polyreactivity"}, {"sequence": "QVQLVESGGGLVQAGGSLRLSCAASGRTFYGYAMGWYRQAPGKERELVATITSGGSTKYADSVKGRFTISRDNAKNTVYLQMNSLKPEDTAVYYCAARTGGHRGYDYWGQGTQVTVSS", "polyreactivity (PSR sort gate)": "low polyreactivity"}, {"sequence": "QVQLVESGGGLVQAGGSLRLSCAASGRTFYGYGMGWYRQAPGKERELVAGISGRGTRTYYADSVKGRFTISRDNAKNTVYLQMNSLKPEDTAVYYCNAVSIGYYSQSLGLDYWGQGTQVTVSS", "polyreactivity (PSR sort gate)": "high polyreactivity"}, {"sequence": "QVQLVESGGGLVQAGGSLRLSCAASGRTFYGYVMGWYRQAPGKERELVAAISRSVGSTYYADSVKGRFTISRDNAKNTVYLQMNSLKPEDTAVYYCATSVYGGVDYWGQGTQVTVSS", "polyreactivity (PSR sort gate)": "high polyreactivity"}, {"sequence": "QVQLVESGGGLVQAGGSLRLSCAASGRTFYGYVMGWYRQAPGKERELVAAISSGGNTKYADSVKGRFTISRDNAKNTVYLQMNSLKPEDTAVYYCAAGSSVTPYRYYYWGQGTQVTVSS", "polyreactivity (PSR sort gate)": "high polyreactivity"}, {"sequence": "QVQLVESGGGLVQAGGSLRLSCAASGRTFYHNAMGWYRQAPGKERELVAAITSSGGRTYYADSVKGRFTISRDNAKNTVYLQMNSLKPEDTAVYYCNARYLGGQVRYWYYNKYDYWGQGTQVTVSS", "polyreactivity (PSR sort gate)": "high polyreactivity"}, {"sequence": "QVQLVESGGGLVQAGGSLRLSCAASGRTFYHYAMGWYRQAPGKERELVAGITGRGRSTYYADSVKGRFTISRDNAKNTVYLQMNSLKPEDTAVYYCAAARLYSGAASDYGYWGQGTQVTVSS", "polyreactivity (PSR sort gate)": "high polyreactivity"}, {"sequence": "QVQLVESGGGLVQAGGSLRLSCAASGRTFYHYTMGWYRQAPGKARELVAAITSGGSTYYADSVKGRFTISRDYAKNTVYLQMNSLKPEDTAVYYCARVRPLYHFSRYDDCGQGTQVTVSS", "polyreactivity (PSR sort gate)": "high polyreactivity"}, {"sequence": "QVQLVESGGGLVQAGGSLRLSCAASGRTFYINAMGWSRQAPGKERELVAAITWSGGRTYYADSVKGRFTISRDNAKNTVYLQMNSLKPEDTAVYYCAVGYVYTRKGRVQPVKYDYWGQGTQVTVSS", "polyreactivity (PSR sort gate)": "high polyreactivity"}, {"sequence": "QVQLVESGGGLVQAGGSLRLSCAASGRTFYINAMGWYRQAPGKERELVATISRSGGDTYYADSVKGRFTISRDNAKNTVYLQMNSLKPEDTAVYYCYARQYYYRSGAYASRYLYNYWGQGTQVTVSS", "polyreactivity (PSR sort gate)": "high polyreactivity"}, {"sequence": "QVQLVESGGGLVQAGGSLRLSCAASGRTFYINAMGWYRQAPRKERELVAAITSVGSTNYADSVKGRFTISRDNAKNNVYIQMNSLKPEDTAVYYCAAESTEGTSGDYDYWGQGTQVTVSS", "polyreactivity (PSR sort gate)": "low polyreactivity"}, {"sequence": "QVQLVESGGGLVQAGGSLRLSCAASGRTFYIYAMGWYRQAPGKERELVAAINSGGSTYYADSVKGRFTISRDNAKNTVYLQMNSLKPEDTAVYYCAATKGYYFFGDRDYWGQGTQVTVSS", "polyreactivity (PSR sort gate)": "low polyreactivity"}, {"sequence": "QVQLVESGGGLVQAGGSLRLSCAASGRTFYIYAMGWYRQAPGKERELVAAISWGSGSTYYADSVKGRFTISRDNAKNTVYLQMNSLKPEDTAVYYCAAEYAYPSEWTYDYWRQGTQVTVSS", "polyreactivity (PSR sort gate)": "low polyreactivity"}, {"sequence": "QVQLVESGGGLVQAGGSLRLSCAASGRTFYIYAMGWYRQAPGKERELVAAITYGGGRTFYADSVKGRFTISRDYAKTTVYLQMISLKPEDTAVYYCAATDRGKRSTYDYWGQGTQVTVSS", "polyreactivity (PSR sort gate)": "high polyreactivity"}, {"sequence": "QVQLVESGGGLVQAGGSLRLSCAASGRTFYIYAMGWYRQAPGKERELVASINWSTGRTYYADSVKGRFTISRDNAKNTVYLQMNSLKPEDTAVYYCATDGDYYYISQGRRGYRYNYWGQGTQVTVSS", "polyreactivity (PSR sort gate)": "high polyreactivity"}, {"sequence": "QVQLVESGGGLVQAGGSLRLSCAASGRTFYIYARGWYRKAPGKERELVAAITYGGGRTFYADSVKGRFTISRDNAKYTVYLQMNSLKPEDNAVYYCAATVRGKRSTYDYWGQGTQVTVSS", "polyreactivity (PSR sort gate)": "high polyreactivity"}, {"sequence": "QVQLVESGGGLVQAGGSLRLSCAASGRTFYIYTRGWYRQAPGKERELVAAISSSGDSTYYADSVKGRFTISRDNAKNTVYLQMNSLKPEDTAVYYCAAYPTYPDEYWGQGTQVTVSS", "polyreactivity (PSR sort gate)": "low polyreactivity"}, {"sequence": "QVQLVESGGGLVQAGGSLRLSCAASGRTFYKNAIGWYRQAPGKERELVAAITATYYADSVKGRFTISRDNAKNTVYLQMNSLKPEDTAVYYCNAYLYPKQPLSPPYPTFEGGYCGQGTQVTVSS", "polyreactivity (PSR sort gate)": "low polyreactivity"}, {"sequence": "QVQLVESGGGLVQAGGSLRLSCAASGRTFYKNAMGWYRQEPGTERELVAAISSRGGRTTYADSVKGRFTISRDNAKNTVYLQMISLKPEDTAVYYCAADWAQVYHGTPKYYYWGQGTQVTVSS", "polyreactivity (PSR sort gate)": "high polyreactivity"}, {"sequence": "QVQLVESGGGLVQAGGSLRLSCAASGRTFYKYAMGWYRQAPAKESELVAAISTRGTNTYYADSVKGRFTISRDYAKNTVYLQMKSLKPEDTAVYYCAAVTASPYSHDYWGQGTQVTVSS", "polyreactivity (PSR sort gate)": "high polyreactivity"}, {"sequence": "QVQLVESGGGLVQAGGSLRLSCAASGRTFYKYAMGWYRQAPGKERELVAVINWSGGRTYADSVKGRFTISRDNAKNTVYLQMNSLKPEDTAVYYCNAESYEFHRAWGDYDYWGQGTQVTVSS", "polyreactivity (PSR sort gate)": "low polyreactivity"}, {"sequence": "QVQLVESGGGLVQAGGSLRLSCAASGRTFYKYAMGWYRQAPWKERELVAAISSDGTTYYADSVKGRFTISRDNAKNTVYLQMNSLKPEDTAVYYCAKDRKYADNDYWGQGTQVTVSS", "polyreactivity (PSR sort gate)": "low polyreactivity"}, {"sequence": "QVQLVESGGGLVQAGGSLRLSCAASGRTFYLNAMGWYRQAPGKERELVATISYTGDTTYYADSVKGRFTISGDNALNTVYLQMNSLKPEDTAVYYCAALPSRPRGYDYWGQGTQVTVSS", "polyreactivity (PSR sort gate)": "high polyreactivity"}, {"sequence": "QVQLVESGGGLVQAGGSLRLSCAASGRTFYLYAMGWYRPAPGKERELVAAITWRGGSTYYADSVKGRFTISRDNAKNTVYLQMNSLKPEDTAVYYCAAVTFFYYSAVRYEYYYWGQGTQVTVSS", "polyreactivity (PSR sort gate)": "high polyreactivity"}, {"sequence": "QVQLVESGGGLVQAGGSLRLSCAASGRTFYLYAMGWYRQAPGKERELVAAITWRGGSTYYADSVKGRFTISRDNAKNTVYLQMNSLKPEDTAVYYCAAVTFFYYSAVRYEYYYWGQGTQVTVSS", "polyreactivity (PSR sort gate)": "high polyreactivity"}, {"sequence": "QVQLVESGGGLVQAGGSLRLSCAASGRTFYLYAMGWYRQAPGKERELVADISWDGDSTYYADSVKGRFTISRDNAKNTVYLQMNSLKPEDTAVYYCAADYFYYYEQYLWYTYDYWGQGTQVTVSS", "polyreactivity (PSR sort gate)": "high polyreactivity"}, {"sequence": "QVQLVESGGGLVQAGGSLRLSCAASGRTFYLYTMGSSRQAPGKERELVAAITGGGRTYYADSVKGRFTISRDNAKNTVYLQMNSLKPEDTAVYYCNADYAYYSYDYWGQGTQVTVSS", "polyreactivity (PSR sort gate)": "low polyreactivity"}, {"sequence": "QVQLVESGGGLVQAGGSLRLSCAASGRTFYLYTMGWYRQAPGKVSELVATISDGGGGTYYADSVKGRFTISRDNAKNTVYLQMNRLKPEDTAVYYCSADPIDVRDVPIPHVDFDYWGQGTQVTVSS", "polyreactivity (PSR sort gate)": "low polyreactivity"}, {"sequence": "QVQLVESGGGLVQAGGSLRLSCAASGRTFYLYTMGWYRQAPWKERELVAGISWSGGSTYADSVKGRFTLSRDNAKNTVYLQMNSLKPEDTAVYYFNADDVRGLFYYWGQGTQVTVSS", "polyreactivity (PSR sort gate)": "low polyreactivity"}, {"sequence": "QVQLVESGGGLVQAGGSLRLSCAASGRTFYNAMGWYRPAPGKERELVAAITTGGGTKYADSVKGRCTISRDNAKNTVYLQMNSLKPEDTAVYYCNTDEWYHFYHGAHKYDYWGQGTQVTVSS", "polyreactivity (PSR sort gate)": "low polyreactivity"}]}]}
